T1: erythropoietin receptor (UniProt P19235 25-508, limits assumed)
T1 sequence (looked up): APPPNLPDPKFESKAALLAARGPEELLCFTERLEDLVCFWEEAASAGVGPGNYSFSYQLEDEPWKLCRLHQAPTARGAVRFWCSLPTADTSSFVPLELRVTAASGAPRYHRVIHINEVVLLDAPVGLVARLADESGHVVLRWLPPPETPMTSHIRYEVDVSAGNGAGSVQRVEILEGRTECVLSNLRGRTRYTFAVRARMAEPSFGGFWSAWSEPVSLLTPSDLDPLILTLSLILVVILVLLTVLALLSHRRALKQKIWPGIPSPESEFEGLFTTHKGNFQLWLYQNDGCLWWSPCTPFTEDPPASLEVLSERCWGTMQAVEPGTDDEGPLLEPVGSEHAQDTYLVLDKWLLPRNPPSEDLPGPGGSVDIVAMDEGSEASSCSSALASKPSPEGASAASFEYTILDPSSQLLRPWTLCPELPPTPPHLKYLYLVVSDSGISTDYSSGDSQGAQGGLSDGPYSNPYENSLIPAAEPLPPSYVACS

Experimental findings from patent US20060128618A1 (APLAGEN, published 2006) are described below.

*1 amine or outer side, *2 acyl side, *3 side chain or, on linkers, in order; H or OH if unused. Bridges are numbered along the chain shown (N, C = ends). Where no end group is shown, it is not given here. [ ]: non-standard residue; d: D form. Als = 5-aminolevulinic acid, O=C(CCC(=O)[*:2])CN[*:1]

The test addresses T1, erythropoietin receptor. Description: cell-based or functional assay.
With GGTYSCHFGKLTWVCKKQGG (disulfide 6-15 (inferred)) [peptide SEQ. ID NO. 2 GGTYSCHFGKLTWVCKKQGG], the “EC50, proliferation assay with TF-1 cells by MTT” value (“EC50, proliferation assay” below) came out at 3.28 µM.

Turning to GGTYSCHFGRLTWVCKPQGG (disulfide 6-15 (inferred)) [peptide SEQ. ID NO. 5 GGTYSCHFGRLTWVCKPQGG], the “EC50, proliferation assay” value was 5.16 µM.

On to GGTYSCHFGKLTWVCKPQGG (disulfide 6-15 (inferred)) [peptide SEQ. ID NO. 4 GGTYSCHFGKLTWVCKPQGG], for which the “EC50, proliferation assay” value came out at 4.66 µM.

Regarding GGTYSCHFAKLTWVCKKQGG (disulfide 6-15 (inferred)) [peptide GGTYSCHFAKLTWVCKKQGG], the “EC50, proliferation assay” value was found to be 5.04 µM.

Turning to GGTYSCHF[Als]LTWVCKPQGG (disulfide 6-14 (inferred)) [peptide SEQ. ID NO. 7 GGTYSCHF-(Als)-LTWVCKPQGG], the “EC50, proliferation assay” value amounted to 5.26 µM. Take GGTYSCHFGRLTWVCKKQGG (disulfide 6-15 (inferred)) [peptide SEQ. ID NO. 6 GGTYSCHFGRLTWVCKKQGG]: the “EC50, proliferation assay” value came to 4.97 µM. In the case of GGTYSCHFGPLTWVCKKQGG (disulfide 6-15 (inferred)) [peptide GGTYSCHFGPLTWVCKKQGG], the “EC50, proliferation assay” value came to 2.52 µM. As for GGTYSCHF[Als]LTWVCKKQGG (disulfide 6-14 (inferred)) [peptide SEQ. ID NO. 8 GGTYSCHF-(Als)-LTWVCKKQGG], the “EC50, proliferation assay” value came to 5 µM.
